Assay results from article doi:10.1101/554881, “LRRK2-mediated phosphorylation of HDAC6 regulates HDAC6-cytoplasmic dynein interaction and aggresome formation” (bioRxiv, 2019).

Target: T1, GST-tagged human LRRK2 wild type (amino acids 970-2527) (human, UniProt Q5S007 970-2527)
T1 construct: LRRK2, human, amino acids 970-2527; also called GST-LRRK2; GST-LRRK2 (aa 970-2527); source: bought: Invitrogen
Test: pull-down; GST-LRRK2 (aa 970-2527; 1 µg) or GST (1 µg) incubated with His-HDAC6 (1 µg) in 250 µl RB100 buffer (25 mM HEPES pH 7.5, 100 mM KOAc, 10 mM MgCl2, 1 mM DTT, 0.05% Triton X-100, 10% glycerol) for 1 h at 4°C; captured on glutathione sepharose; immunoblot
Details: both partners purified

T1 sequence (Q5S007 970-2527): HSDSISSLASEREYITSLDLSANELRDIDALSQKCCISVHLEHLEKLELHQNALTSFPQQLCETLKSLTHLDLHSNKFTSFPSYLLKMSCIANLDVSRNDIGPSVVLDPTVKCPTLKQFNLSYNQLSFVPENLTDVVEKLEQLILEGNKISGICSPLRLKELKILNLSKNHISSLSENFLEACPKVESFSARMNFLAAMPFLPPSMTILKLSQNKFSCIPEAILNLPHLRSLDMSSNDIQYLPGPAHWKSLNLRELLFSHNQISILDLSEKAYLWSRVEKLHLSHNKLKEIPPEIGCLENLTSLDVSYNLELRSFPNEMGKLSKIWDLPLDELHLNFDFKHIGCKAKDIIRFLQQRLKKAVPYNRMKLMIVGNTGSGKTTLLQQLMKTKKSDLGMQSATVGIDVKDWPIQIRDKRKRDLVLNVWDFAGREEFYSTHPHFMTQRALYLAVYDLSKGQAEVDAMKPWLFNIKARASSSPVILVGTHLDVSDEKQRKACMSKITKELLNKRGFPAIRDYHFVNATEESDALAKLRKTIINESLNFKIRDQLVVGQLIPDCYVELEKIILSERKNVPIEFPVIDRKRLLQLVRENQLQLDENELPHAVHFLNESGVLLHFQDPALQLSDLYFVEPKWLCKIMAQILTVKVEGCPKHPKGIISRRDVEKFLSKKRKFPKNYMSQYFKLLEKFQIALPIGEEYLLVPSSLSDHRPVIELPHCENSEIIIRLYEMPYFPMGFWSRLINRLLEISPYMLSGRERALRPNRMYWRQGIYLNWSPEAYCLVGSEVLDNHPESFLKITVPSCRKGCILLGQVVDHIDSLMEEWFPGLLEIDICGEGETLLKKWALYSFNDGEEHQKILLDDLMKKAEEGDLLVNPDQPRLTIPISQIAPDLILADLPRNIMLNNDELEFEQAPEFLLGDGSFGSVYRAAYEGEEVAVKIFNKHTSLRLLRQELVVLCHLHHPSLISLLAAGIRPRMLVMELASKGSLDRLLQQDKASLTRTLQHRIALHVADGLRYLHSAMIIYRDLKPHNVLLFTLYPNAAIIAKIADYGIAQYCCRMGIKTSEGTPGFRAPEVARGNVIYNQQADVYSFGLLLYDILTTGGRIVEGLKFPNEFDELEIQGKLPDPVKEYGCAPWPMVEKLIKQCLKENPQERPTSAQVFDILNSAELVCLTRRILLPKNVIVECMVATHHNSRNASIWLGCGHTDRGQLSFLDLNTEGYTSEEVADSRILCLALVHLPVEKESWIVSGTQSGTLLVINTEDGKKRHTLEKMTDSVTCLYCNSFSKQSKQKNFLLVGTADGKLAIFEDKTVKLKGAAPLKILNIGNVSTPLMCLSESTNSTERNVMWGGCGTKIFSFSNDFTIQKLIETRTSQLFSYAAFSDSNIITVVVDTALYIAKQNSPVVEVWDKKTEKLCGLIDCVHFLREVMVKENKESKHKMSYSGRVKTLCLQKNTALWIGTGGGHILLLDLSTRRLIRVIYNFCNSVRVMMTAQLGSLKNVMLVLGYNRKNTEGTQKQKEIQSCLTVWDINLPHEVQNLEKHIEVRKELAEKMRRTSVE

binding result: binds
B1: recombinant His-tagged human HDAC6 protein (enzyme, UniProt Q9UBN7 1-1215, looked up)
chain: MTSTGQDSTTTRQRRSRQNPQSPPQDSSVTSKRNIKKGAVPRSIPNLAEVKKKGKMKKLGQAMEEDLIVGLQGMDLNLEAEALAGTGLVLDEQLNEFHCLWDDSFPEGPERLHAIKEQLIQEGLLDRCVSFQARFAEKEELMLVHSLEYIDLMETTQYMNEGELRVLADTYDSVYLHPNSYSCACLASGSVLRLVDAVLGAEIRNGMAIIRPPGHHAQHSLMDGYCMFNHVAVAARYAQQKHRIRRVLIVDWDVHHGQGTQFTFDQDPSVLYFSIHRYEQGRFWPHLKASNWSTTGFGQGQGYTINVPWNQVGMRDADYIAAFLHVLLPVALEFQPQLVLVAAGFDALQGDPKGEMAATPAGFAQLTHLLMGLAGGKLILSLEGGYNLRALAEGVSASLHTLLGDPCPMLESPGAPCRSAQASVSCALEALEPFWEVLVRSTETVERDNMEEDNVEESEEEGPWEPPVLPILTWPVLQSRTGLVYDQNMMNHCNLWDSHHPEVPQRILRIMCRLEELGLAGRCLTLTPRPATEAELLTCHSAEYVGHLRATEKMKTRELHRESSNFDSIYICPSTFACAQLATGAACRLVEAVLSGEVLNGAAVVRPPGHHAEQDAACGFCFFNSVAVAARHAQTISGHALRILIVDWDVHHGNGTQHMFEDDPSVLYVSLHRYDHGTFFPMGDEGASSQIGRAAGTGFTVNVAWNGPRMGDADYLAAWHRLVLPIAYEFNPELVLVSAGFDAARGDPLGGCQVSPEGYAHLTHLLMGLASGRIILILEGGYNLTSISESMAACTRSLLGDPPPLLTLPRPPLSGALASITETIQVHRRYWRSLRVMKVEDREGPSSSKLVTKKAPQPAKPRLAERMTTREKKVLEAGMGKVTSASFGEESTPGQTNSETAVVALTQDQPSEAATGGATLAQTISEAAIGGAMLGQTTSEEAVGGATPDQTTSEETVGGAILDQTTSEDAVGGATLGQTTSEEAVGGATLAQTTSEAAMEGATLDQTTSEEAPGGTELIQTPLASSTDHQTPPTSPVQGTTPQISPSTLIGSLRTLELGSESQGASESQAPGEENLLGEAAGGQDMADSMLMQGSRGLTDQAIFYAVTPLPWCPHLVAVCPIPAAGLDVTQPCGDCGTIQENWVCLSCYQVYCGRYINGHMLQHHGNSGHPLVLSYIDLSAWCYYCQAYVHHQALLDVKNIAHQNKFGEDMPHPH
notes: Histone deacetylase 6 (HDAC6), human, full length; also called His-HDAC6; full-length human His-HDAC6; source: bought: EMD Millipore
